Results reported in US8652790B2, “Conformational entropy in molecular recognition” (The Trustees of the University of Pennsylvania, priority 2007, dated 2014).

Experiments:
calmodulin [1] = biological target: T1, calmodulin (Homo sapiens, UniProt P0DP23); assay: Change in conformational entropy of calmodulin on binding a target domain, estimated from methyl O^2axis (harmonic oscillator model); conditions: 308 K; for TSconf: absolute conformational entropy of calmodulin in complex; for −TΔSconf: calmodulin upon binding target domain, free CaM reference state; for TSrotamer(fast) / TSrotamer(slow): classical entropy; for TSrotamer(fast): fast rotamer interconversion; for TSrotamer(slow): slowly interconverting conformers; for TSharm: motion within a rotameric well, simple harmonic oscillator
From the text: Guided by Karplus and co-workers (see Karplus M et al. (1987)), the present approach connects the change in internal protein dynamics to the conformational entropy, describing the protein as a disjoint multidimensional harmonic well: Sconf=ΣpiS^hi−kBΣpilnpi (2) where S^hi represents the entropy manifested by fast intra-well motion and the second term corresponds to the classical conformational entropy arising from the i=1 . . . N distinct conformations. Here S^hi is obtained from interpretation of local order parameters, which is model-dependent. The present approach finds its modern roots in the work described in Akke, M., Bruschweiler, R. & Palmer, A. G. NMR order parameters and free-energy—an analytical approach and its application to cooperative Ca^2+ binding by calbindin-D(9k). J. Am. Chem. Soc. 115, 9832-9833 (1993), in which a specific motional model (potential energy function) is used to provide a parametric relationship between what is measured, the squared generalized order parameter, and what is sought, a thermodynamic quantity such as the entropy.
A simple harmonic oscillator treatment was selected to make this connection. Li, Z., Raychaudhuri, S. & Wand, A. J. Insights into the local residual entropy of proteins provided by NMR relaxation. Prot. Sci. 5, 2647-2650 (1996). It is important to note that the absolute entropies obtained in this way are very dependent on the details of the potential energy function but that differences in entropy calculated from changes in O^2 are fairly insensitive to the model used. Li, Z, et al. (1996); Lee, A. L. et al. Temperature dependence of the internal dynamics of a calmodulin peptide complex. Biochemistry 41, 13814-13825 (2002). As the reference state for obtaining ΔSconf we use calcium-saturated calmodulin. The second term of equation (2) represents classical entropy arising from the local heterogeneity of side-chain conformers. This can be manifested on a range of timescales. […] This was interpreted as classical entropy with the population of each state (pi) estimated from the intensity of cross peaks. […] Lee, A. L. et al. (2002). This also represents conformational entropy and was estimated using a previously described model. Id.
The change in conformational entropy of calmodulin on binding a target domain was estimated as the sum of three terms: ΔSconf=ΔSharm+ΔSrotamer(fast)+ΔSrotamer(slow). Sharm was obtained from O^2axis parameters using a harmonic oscillator model. Li, Z., Raychaudhuri, S. & Wand, A. J. Insights into the local residual entropy of proteins provided by NMR relaxation. Prot. Sci. 5, 2647-2650 (1996). Free calcium-saturated calmodulin was used as the reference state in site-to-site comparisons. To normalize the unequal number of resolved sites among the complexes, the average methyl order parameter within a complex was assigned to each unresolved site of that complex. A classical entropy term ΔSrotamer(fast) was added to represent minor conformers that are sampled owing to fast rotameric interconversion. Lee, A. L. et al. Temperature dependence of the internal dynamics of a calmodulin peptide complex. Biochemistry 41, 13814-13825 (2002). For the small number of sites having multiple conformations in slow exchange on the NMR chemical shift timescale, an additional classical entropy contribution ΔSrotamer(slow) was calculated on the basis of measured intensities. Populations of the three motional classes were obtained using nonlinear regression of a three gaussian model to the observed order parameter distributions. […]

calmodulin [2] = biological target: T1, calmodulin; assay: Populations of J, α, ω motional classes of calmodulin methyl O^2axis distributions in the complexes
Method: FIG. 3a, provides a histogram of the sum of the O^2axis parameter distributions of calmodulin in the six individual complexes obtained at 35° C. The solid line represents the best-fitted solution to a 3-gaussian distribution with all nine parameters fitted. FIG. 3b provides histograms of the O^2axis parameter distributions of calmodulin in the individual complexes. […]
The summed distribution of O^2axis axis parameters of all six complexes was fitted to a random distribution and to one, two- and three-gaussian distribution models. […] (3) where Ai, Ci and Wi define the population, centre and breadth, respectively, of the J, α and ω classes of motion.
The nine parameters were fitted using the nonlinear regression routine of SigmaPlot 2000 (SPSS). […] These centres were fixed in subsequent fitting of the O^2axis distributions of the individual complexes, from which the relative populations of each motional class were obtained. Uncertainties in the fitted populations were estimated by varying the O^2axis parameters by two standard deviations. […] The total change in conformational entropy of calmodulin on binding a target domain was calculated as the sum of three terms: ΔSconf=ΔSharm+ΔSrotamer(fast)+ΔSrotamer(slow). Changes in conformational entropy ΔSrotamer(fast) expressed as changes in motion within a rotameric well on the fast timescale (sub-ns) were obtained from the experimentally determined O^2axis parameters using a simple harmonic oscillator model. Li Z et al. (1996). To calculate changes in entropy derived from motion of the same oscillator, site-to-site comparison to free calcium-saturated calmodulin was used to provide a reference state. The change in the entropy reflected by the change in the motion of each methyl symmetry axis was estimated using ΔSharm=−18×ΔO^2axis J mol^−1 K^−1. See Li Z et al. (1996) for further details of the model. To normalize the unequal number of resolved sites among the complexes, the average methyl order parameter within a complex was assigned to each unresolved site of that complex. A classical entropy term (ΔSrotamer(fast)) was added to represent minor conformers that are sampled owing to fast rotameric interconversion that also contributes to the generalized order parameter. Lee, A. L. et al. Temperature dependence of the internal dynamics of a calmodulin peptide complex. Biochemistry 41, 13814-13825 (2002).

[3] = area under fitted Gaussian, fixed centres
[4] = percentage of counts in class (number of observations), O^2axis 0.5 to 0.7
[5] = percentage of counts in class (number of observations), O^2axis above 0.7
[6] = percentage of counts in class (number of observations), O^2axis up to 0.5

Row | TSconf (calmodulin [1]) | −TΔSconf (calmodulin [1]) | TSrotamer(fast) (calmodulin [1]) | TSrotamer(slow) (calmodulin [1]) | TSharm (calmodulin [1]) | % J (calmodulin [2]; [3]) | % α (calmodulin [2]; [3]) | % ω (calmodulin [2]; [3]) | % α (calmodulin [2]; [4]) | % ω (calmodulin [2]; [5]) | % J (calmodulin [2]; [6]) | Substance
1 | 168.6 kcal/mol | +63.5 kJ/mol | 23.5 kcal/mol | 2.25 kcal/mol | 142.9 kcal/mol | 38.5% | 21.3% | 40.3% | 30% | 35% | 35% | (COOH-FPNGFSRKRLMSKVLIVTTWSPLL [CaMKKα(p)]
2 | 177.9 kcal/mol | +24.9 kJ/mol | 25.96 kcal/mol | 3.56 kcal/mol | 148.3 kcal/mol | 48.3% | 18.9% | 32.8% | 33% | 20% | 46% | QTEKMWQRLKGILRSLVKQ [PDE(p)]
3 | 168 kcal/mol | +66.0 kJ/mol | 22.6 kcal/mol | 3.59 kcal/mol | 141.8 kcal/mol | 38.2% | 24.8% | 37.0% | 30% | 32% | 38% | AKSKWKQAFNATAVVRHMRKLQ (listed as Homo sapiens) [CaMKI(p)]
4 | 180 kcal/mol | +15.9 kJ/mol | 26.31 kcal/mol | 5.93 kcal/mol | 147.8 kcal/mol | 51.6% | 14.7% | 33.7% | 25% | 30% | 45% | KRRAIGFKKLAEAVKFSAKLMGQ [nNOS(p)]

Row | Substance | TSconf (calmodulin [1]) | −TΔSconf (calmodulin [1]) | TSrotamer(fast) (calmodulin [1]) | TSrotamer(slow) (calmodulin [1]) | TSharm (calmodulin [1]) | % J (calmodulin [2]; [3]) | % α (calmodulin [2]; [3]) | % ω (calmodulin [2]; [3]) | % α (calmodulin [2]; [4]) | % ω (calmodulin [2]; [5]) | % J (calmodulin [2]; [6])
5 | RKKTFKEVANAVKISASLMG [eNOS(p)] | 172.8 kcal/mol | +46.1 kJ/mol | 24.21 kcal/mol | 3.97 kcal/mol | 144.6 kcal/mol | 45.6% | 18.4% | 36.0% | 30% | 33% | 38%
